Article PMC12416549 (2024)
Where a chain is given by its changes, count along the chain named. In names and notes the source's numbering stands.

T1: TNFR1 (Homo sapiens, UniProt P19438)
T1 chain: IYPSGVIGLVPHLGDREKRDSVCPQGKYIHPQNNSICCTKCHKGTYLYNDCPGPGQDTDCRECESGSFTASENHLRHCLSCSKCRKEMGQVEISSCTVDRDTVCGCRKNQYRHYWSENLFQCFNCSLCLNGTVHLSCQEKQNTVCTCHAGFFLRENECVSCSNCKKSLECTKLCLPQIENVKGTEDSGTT

B1: L79S (designed binder)
chain: SMEEEVEKAAKEYEKKKKEAIEKHLEKLKAKDKEAAERFLKELEEAAKEYAKDEAKTMSEEEAKRRAKKYKEKVLLSESSEEEQKEIKEAEEKLVRTILKYVEEAAK
B2: I21Q (designed binder)
chain: B1 chain with I21Q, S79L
B3: A30T (designed binder)
chain: B1 chain with A30T, S79L
B4: A35K (designed binder)
chain: B1 chain with A35K, S79L
B5: E104L (designed binder)
chain: B1 chain with S79L, E104L
B6: K52N (designed binder)
chain: B1 chain with K52N, S79L
B7: E92Q (designed binder)
chain: B1 chain with S79L, E92Q
B8: E34D (designed binder)
chain: B1 chain with E34D, S79L
B9: K56F (designed binder)
chain: B1 chain with K56F, S79L
B10: K27G (designed binder)
chain: B1 chain with K27G, S79L
B11: R96G (designed binder)
chain: B1 chain with S79L, R96G
B12: A106P (designed binder)
chain: B1 chain with S79L, A106P
B13: I21K (designed binder)
chain: B1 chain with I21K, S79L
B14: E86F (designed binder)
chain: B1 chain with S79L, E86F
B15: K69C (designed binder)
chain: B1 chain with K69C, S79L
B16: E81S (designed binder)
chain: B1 chain with S79L, E81S
B17: A106R (designed binder)
chain: B1 chain with S79L, A106R
B18: L43Y (designed binder)
chain: B1 chain with L43Y, S79L
B19: T57P (designed binder)
chain: B1 chain with T57P, S79L
B20: A46P (designed binder)
chain: B1 chain with A46P, S79L
B21: L94Q (designed binder)
chain: B1 chain with S79L, L94Q
B22: R65H (designed binder)
chain: B1 chain with R65H, S79L
B23: E3W (designed binder)
chain: B1 chain with E3W, S79L
B24: H24I (designed binder)
chain: B1 chain with H24I, S79L
B25: R66Y (designed binder)
chain: B1 chain with R66Y, S79L
B26: Y13G (designed binder)
chain: B1 chain with Y13G, S79L
B27: A10N (designed binder)
chain: B1 chain with A10N, S79L
B28: E61N (designed binder)
chain: B1 chain with E61N, S79L
B29: K23C (designed binder)
chain: B1 chain with K23C, S79L
B30: L75Q (designed binder)
chain: B1 chain with L75Q, S79L
B31: E44A (designed binder)
chain: B1 chain with E44A, S79L
B32: A55Q (designed binder)
chain: B1 chain with A55Q, S79L
B33: K18A (designed binder)
chain: B1 chain with K18A, S79L
B34: E49G (designed binder)
chain: B1 chain with E49G, S79L
B35: I98M (designed binder)
chain: B1 chain with S79L, I98M
B36: K29Y (designed binder)
chain: B1 chain with K29Y, S79L
B37: K93D (designed binder)
chain: B1 chain with S79L, K93D
B38: K41M (designed binder)
chain: B1 chain with K41M, S79L
B39: Y101K (designed binder)
chain: B1 chain with S79L, Y101K
B40: R66A (designed binder)
chain: B1 chain with R66A, S79L
B41: M2Y (designed binder)
chain: B1 chain with M2Y, S79L
B42: R65Q (designed binder)
chain: B1 chain with R65Q, S79L
B43: K69T (designed binder)
chain: B1 chain with K69T, S79L
B44: E72I (designed binder)
chain: B1 chain with E72I, S79L
B45: K52Y (designed binder)
chain: B1 chain with K52Y, S79L
B46: K64M (designed binder)
chain: B1 chain with K64M, S79L
B47: A63I (designed binder)
chain: B1 chain with A63I, S79L
B48: T97C (designed binder)
chain: B1 chain with S79L, T97C
B49: V74W (designed binder)
chain: B1 chain with V74W, S79L
B50: E103A (designed binder)
chain: B1 chain with S79L, E103A
B51: A35Q (designed binder)
chain: B1 chain with A35Q, S79L
B52: M2D (designed binder)
chain: B1 chain with M2D, S79L
B53: E104K (designed binder)
chain: B1 chain with S79L, E104K
B54: A106T (designed binder)
chain: B1 chain with S79L, A106T
B55: K33G (designed binder)
chain: B1 chain with K33G, S79L

Molecular target: T1, TNFR1
Assay: yeast display SC50

Binder	apparent Kd (screen) [nM]
B1	2.73
B2	0.49
B3	1.16
B4	0.49
B5	0.49
B6	0.869
B7	6.43
B8	0.718
B9	3.63
B10	0.79
B11	2.73
B12	0.653
B13	0.446
B14	1.86
B15	2.48
B16	0.79
B17	3
B18	5.84
B19	6.43
B20	11.4
B21	1.16
B22	1.54
B23	22.2
B24	2.73
B25	13.8
B26	2.48
B27	2.48
B28	1.4

Binder	apparent Kd (screen) [nM]
B29	0.49
B30	0.49
B31	0.956
B32	1.54
B33	0.79
B34	9.41
B35	5.31
B36	0.956
B37	0.446
B38	0.446
B39	0.446
B40	20.2
B41	0.49
B42	0.304
B43	2.05
B44	0.718
B45	2.48
B46	0.653
B47	4.83
B48	0.79
B49	0.49
B50	0.446
B51	0.869
B52	0.446
B53	0.446
B54	1.54
B55	1.16
